Results as given in the supplement of paper PMC5998384.

Columns and labels:
[1] = tested on: HeLa Kyoto; assay: solubility in G1/S (NP-40 vs SDS abundance) (log2 ratio); higher = more soluble; conditions: cell cycle stage: G1/S
[2] = tested on: HeLa Kyoto; assay: melting temperature (median over replicates), in situ; higher = more thermally stable
[3] = tested on: HeLa Kyoto; assay: solubility change mitosis vs G1/S (difference of NP-40 vs SDS log2 ratios) (log2 ratio difference); higher = more soluble in mitosis
[4] = tested on: HeLa Kyoto; assay: thermal stability score vs G1/S (z-score of summed log2 fold changes over temperatures); higher = more thermally stable than in G1/S
[5] = cell cycle stage: early G1 (4.5 h after nocodazole release)
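Throughout, for melting temperature (median over replicates), in situ: HeLa Kyoto cells synchronized by double thymidine or nocodazole block, proteins quantified by TMT10plex mass spectrometry, three independent biological replicates.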
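Throughout, for solubility change mitosis vs G1/S (difference of NP-40 vs SDS log2 ratios): synchronized HeLa Kyoto cells (double thymidine block for G1/S, nocodazole release for mitosis), protein amounts in NP-40 versus SDS lysates quantified by mass spectrometry, three biological replicates.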
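Throughout, for solubility in G1/S (NP-40 vs SDS abundance): HeLa Kyoto cells arrested at G1/S by double thymidine block, proteins quantified by TMT10plex mass spectrometry in mild NP-40 versus SDS extracts, three biological replicates.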
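Throughout, for thermal stability score vs G1/S (z-score of summed log2 fold changes over temperatures): synchronized HeLa Kyoto cells, proteins quantified by TMT10plex mass spectrometry, three biological replicates, mitosis taken 0.5 h after nocodazole release, G1/S directly after double thymidine block.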

**Q.** Which “solubility in G1/S (log2)” value [1] does the source give for “MANIAVQRIKREFKEVLKSEETSKNQIKVDLVDENFTELRGEIAGPPDTPYEGGRYQLEIKIPETYPFNPPKVRFITKIWHPNISSVTGAICLDILKDQWAAAMTLRTVLLSLQALLAAAEPDDPQDAVVANQYKQNPEMFKQTARLWAHVYAGAPVSSPEYTKKIENLCAMGFDRNAVIVALSSKSWDVETATELLLSN [UBE2K]” here?
**A.** 0.332

**Q.** And the melting temperature ([2]; cell cycle stage: G1/S)?
**A.** 53.2 °C

**Q.** What about the melting temperature ([2]; cell cycle stage: mitosis) of the same sequence?
**A.** 53.9 °C

**Q.** What about the “solubility change mitosis (log2)” value [3] of the same sequence?
**A.** -0.0147

**Q.** What about the thermal stability score [4, 5] of the same sequence?
**A.** -2.17

**Q.** And the thermal stability score ([4]; cell cycle stage: mitosis)?
**A.** 0.646

**Q.** Which results are given for “MANLLKTVVTGCSCPLLSNLGSCKGLRVKKDFLRTFYTHQELWCKAPVKPGIPYKQLTVGVPKEIFQNEKRVALSPAGVQNLVKQGFNVVVESGAGEASKFSDDHYRVAGAQIQGAKEVLASDLVVKVRAPMVNPTLGVHEADLLKTSGTLISFIYPAQNPELLNKLSQRKTTVLAMDQVPRVTIAQGYDALSSMANIAGYKAVVLAANHFGRFFTGQITAAGKVPPAKILIVGGGVAGLASAGAAKSMGAIVRGFDTRAAALEQFKSLGAEPLEVDLKESGEGQGGYAKEMSKEFIEAEMKLFAQQCKEVDILISTALIPGKKAPVLFNKEMIESMKEGSVVVDLAAEAGGNFETTKPGELYIHKGITHIGYTDLPSRMATQASTLYSNNITKLLKAISPDKDNFYFDVKDDFDFGTMGHVIRGTVVMKDGKVIFPAPTPKNIPQGAPVKQKTVAELEAEKAATITPFRKTMSTASAYTAGLTGILGLGIAAPNLAFSQMVTTFGLAGIVGYHTVWGVTPALHSPLMSVTNAISGLTAVGGLALMGGHLYPSTTSQGLAALAAFISSVNIAGGFLVTQRMLDMFKRPTDPPEYNYLYLLPAGTFVGGYLAALYSGYNIEQIMYLGSGLCCVGALAGLSTQGTARLGNALGMIGVAGGLAATLGVLKPGPELLAQMSGAMALGGTIGLTIAKRIQISDLPQLVAAFHSLVGLAAVLTCIAEYIIEYPHFATDAAANLTKIVAYLGTYIGGVTFSGSLIAYGKLQGLLKSAPLLLPGRHLLNAGLLAASVGGIIPFMVDPSFTTGITCLGSVSALSAVMGVTLTAAIGGADMPVVITVLNSYSGWALCAEGFLLNNNLLTIVGALIGSSGAILSYIMCVAMNRSLANVILGGYGTTSTAGGKPMEISGTHTEINLDNAIDMIREANSIIITPGYGLCAAKAQYPIADLVKMLTEQGKKVRFGIHPVAGRMPGQLNVLLAEAGVPYDIVLEMDEINHDFPDTDLVLVIGANDTVNSAAQEDPNSIIAGMPVLEVWKSKQVIVMKRSLGVGYAAVDNPIFYKPNTAMLLGDAKKTCDALQAKVRESYQK [NNT]”?
**A.** solubility in G1/S (log2) [1]: 0.11; melting temperature ([2]; cell cycle stage: G1/S): 53.4 °C; melting temperature ([2]; cell cycle stage: mitosis): 53.4 °C; solubility change mitosis (log2) [3]: -0.0884; thermal stability score [4, 5]: -1.09; thermal stability score ([4]; cell cycle stage: mitosis): -1.47

**Q.** What does the source list for “MANQVNGNAVQLKEEEEPMDTSSVTHTEHYKTLIEAGLPQKVAERLDEIFQTGLVAYVDLDERAIDALREFNEEGALSVLQQFKESDLSHVQNKSAFLCGVMKTYRQREKQGSKVQESTKGPDEAKIKALLERTGYTLDVTTGQRKYGGPPPDSVYSGVQPGIGTEVFVGKIPRDLYEDELVPLFEKAGPIWDLRLMMDPLSGQNRGYAFITFCGKEAAQEAVKLCDSYEIRPGKHLGVCISVANNRLFVGSIPKNKTKENILEEFSKVTEGLVDVILYHQPDDKKKNRGFCFLEYEDHKSAAQARRRLMSGKVKVWGNVVTVEWADPVEEPDPEVMAKVKVLFVRNLATTVTEEILEKSFSEFGKLERVKKLKDYAFVHFEDRGAAVKAMDEMNGKEIEGEEIEIVLAKPPDKKRKERQAARQASRSTAYEDYYYHPPPRMPPPIRGRGRGGGRGGYGYPPDYYGYEDYYDDYYGYDYHDYRGGYEDPYYGYDDGYAVRGRGGGRGGRGAPPPPRGRGAPPPRGRAGYSQRGAPLGPPRGSRGGRGGPAQQQRGRGSRGSRGNRGGNVGGKRKADGYNQPDSKRRQTNNQQNWGSQPIAQQPLQQGGDYSGNYGYNNDNQEFYQDTYGQQWK [HNRNPR]”?
**A.** solubility in G1/S (log2) [1]: -0.12; melting temperature ([2]; cell cycle stage: G1/S): 47.8 °C; melting temperature ([2]; cell cycle stage: mitosis): 49.4 °C; solubility change mitosis (log2) [3]: 0.234; thermal stability score [4, 5]: 2.99; thermal stability score ([4]; cell cycle stage: mitosis): 8.2

**Q.** For “MAPAGCCCCCCFWGGAVAAAGAARRVLLLLLLGVLSAGLRPGALATEHYSPLSLLKQELQHRQQQEAPAGGGGCSPQSGDWGDQYSAECGESSFLNFHDSDCEPKGSSPCDSLLSLNTEKILSQAKSIAEQKRFPFATDNDSTNEELAIAYVLIGSGLYDEAIRHFSTMLQEEPDLVSAIYGRGIAYGKKGLHDIKNAELALFELSRVITLEPDRPEVFEQRAEILSPLGRINEAVNDLTKAIQLQPSARLYRHRGTLYFISEDYATAHEDFQQSLELNKNQPIAMLYKGLTFFHRGLLKEAIESFKEALKQKVDFIDAYKSLGQAYRELGNFEAATESFQKALLLNQNHVQTLQLRGMMLYHHGSLQEALKNFKRCLQLEPYNEVCQYMKGLSHVAMGQFYEGIKAQTKVMLNDPLPGQKASPEYLKVKYLREYSRYLHAHLDTPLTEYNIDVDLPGSFKDHWAKNLPFLIEDYEEQPGLQPHIKDVLHQNFESYKPEVQELICVADRLGSLMQYETPGFLPNKRIHRAMGLAALEVMQAVQRTWTNSKVRMNGKTRLMQWRDMFDIAVKWRRIADPDQPVLWLDQMPARSLSRGFNNHINLIRGQVINMRYLEYFEKILHFIKDRILVYHGANNPKGLLEVREALEKVHKVEDLLPIMKQFNTKTKDGFTVNTKVPSLKDQGKEYDGFTITITGDKVGNILFSVETQTTEERTQLYHAEIDALYKDLTAKGKVLILSSEFGEADAVCNLILSLVYYFYNLMPLSRGSSVIAYSVIVGALMASGKEVAGKIPKGKLVDFEAMTAPGSEAFSKVAKSWMNLKSISPSYKTLPSVSETFPTLRSMIEVLNTDSSPRCLKKL [TTC13]”, which “solubility in G1/S (log2)” value [1] is on record?
**A.** 0.165

**Q.** And the melting temperature ([2]; cell cycle stage: G1/S)?
**A.** 52.7 °C

**Q.** What about the melting temperature ([2]; cell cycle stage: mitosis) of the same sequence?
**A.** 53.3 °C

**Q.** What about the “solubility change mitosis (log2)” value [3] of the same sequence?
**A.** -0.163

**Q.** And the thermal stability score [4, 5]?
**A.** 1.53

**Q.** What about the thermal stability score ([4]; cell cycle stage: mitosis) of the same sequence?
**A.** 0.195

**Q.** For “MAPAMQPAEIQFAQRLASSEKGIRDRAVKKLRQYISVKTQRETGGFSQEELLKIWKGLFYCMWVQDEPLLQEELANTIAQLVHAVNNSAAQHLFIQTFWQTMNREWKGIDRLRLDKYYMLIRLVLRQSFEVLKRNGWEESRIKVFLDVLMKEVLCPESQSPNGVRFHFIDIYLDELSKVGGKELLADQNLKFIDPFCKIAAKTKDHTLVQTIARGVFEAIVDQSPFVPEETMEEQKTKVGDGDLSAEEIPENEVSLRRAVSKKKTALGKNHSRKDGLSDERGRDDCGTFEDTGPLLQFDYKAVADRLLEMTSRKNTPHFNRKRLSKLIKKFQDLSEGSSISQLSFAEDISADEDDQILSQGKHKKKGNKLLEKTNLEKEKGSRVFCVEEEDSESSLQKRRRKKKKKHHLQPENPGPGGAAPSLEQNRGREPEASGLKALKARVAEPGAEATSSTGEESGSEHPPAVPMHNKRKRPRKKSPRAHREMLESAVLPPEDMSQSGPSGSHPQGPRGSPTGGAQLLKRKRKLGVVPVNGSGLSTPAWPPLQQEGPPTGPAEGANSHTTLPQRRRLQKKKAGPGSLELCGLPSQKTASLKKRKKMRVMSNLVEHNGVLESEAGQPQALGSSGTCSSLKKQKLRAESDFVKFDTPFLPKPLFFRRAKSSTATHPPGPAVQLNKTPSSSKKVTFGLNRNMTAEFKKTDKSILVSPTGPSRVAFDPEQKPLHGVLKTPTSSPASSPLVAKKPLTTTPRRRPRAMDFF [RRP1B]”, which “solubility in G1/S (log2)” value [1] is on record?
**A.** -2.01

**Q.** What about the melting temperature ([2]; cell cycle stage: G1/S) of the same sequence?
**A.** 47.9 °C

**Q.** What about the melting temperature ([2]; cell cycle stage: mitosis) of the same sequence?
**A.** 49.5 °C

**Q.** And the “solubility change mitosis (log2)” value [3]?
**A.** 1.63

**Q.** And the thermal stability score [4, 5]?
**A.** 1.95

**Q.** What about the thermal stability score ([4]; cell cycle stage: mitosis) of the same sequence?
**A.** 1.97

**Q.** With “MAPDSDPFPEGPLLKLLPLDARDRGTQRCRLGPAALHALGARLGSAVKISLPDGGSCLCTAWPRRDGADGFVQLDPLCASPGAAVGASRSRRSLSLNRLLLVPCPPLRRVAVWPVLRERAGAPGARNTAAVLEAAQELLRNRPISLGHVVVAPPGAPGLVAALHIVGGTPSPDPAGLVTPRTRVSLGGEPPSEAQPQPEVPLGGLSEAADSLRELLRLPLRYPRALTALGLAVPRGVLLAGPPGVGKTQLVRAVAREAGAELLAVSAPALQGSRPGETEENVRRVFQRARELASRGPSLLFLDEMDALCPQRGSRAPESRVVAQVLTLLDGASGDREVVVVGATNRPDALDPALRRPGRFDREVVIGTPTLKQRKEILQVITSKMPISSHVDLGLLAEMTVGYVGADLTALCREAAMHALLHSEKNQDNPVIDEIDFLEAFKNIQPSSFRSVIGLMDIKPVDWEEIGGLEDVKLKLKQSIEWPLKFPWEFVRMGLTQPKGVLLYGPPGCAKTTLVRALATSCHCSFVSVSGADLFSPFVGDSEKVLSQIFRQARASTPAILFLDEIDSILGARSASKTGCDVQERVLSVLLNELDGVGLKTIERRGSKSSQQEFQEVFNRSVMIIAATNRPDVLDTALLRPGRLDKIIYIPPPDHKGRLSILKVCTKTMPIGPDVSLENLAAETCFFSGADLRNLCTEAALLALQENGLDATTVKQEHFLKSLKTVKPSLSCKDLALYENLFKKEGFSNVEGI [SPATA5L1]” as the sequence, how does the “solubility in G1/S (log2)” value [1] read?
**A.** -0.0544

**Q.** What about the melting temperature ([2]; cell cycle stage: G1/S) of the same sequence?
**A.** 52.8 °C

**Q.** What about the melting temperature ([2]; cell cycle stage: mitosis) of the same sequence?
**A.** 51.2 °C

**Q.** And the “solubility change mitosis (log2)” value [3]?
**A.** 0.095

**Q.** What about the thermal stability score [4, 5] of the same sequence?
**A.** -0.664

**Q.** What about the thermal stability score ([4]; cell cycle stage: mitosis) of the same sequence?
**A.** -2.04
